The results in this text go back to PMC3181075.

The target of experiment [1] is human carbonic anhydrase XII, catalytic domain (human).
For experiment [2] the target is unchanged. Put plainly: other fluorescence titration.

Like-named read-outs stand apart in the source and are kept apart here.

Regarding polylysine (peptide), the values for the Kd in experiment [1] and in experiment [2] were 3.3 µM and 6 µM, respectively.

As a reminder, the Kd is a measure of binding affinity in units of concentration. A low value points to a tighter complex.
